According to patent US20250092133A1 (Amgen, published 2025):
Positions count from the first letter of the chain named.

B1: CDH3-32 scFv (scFv)
scFv: EVQLVEQPGAELVRPGTSVKLSCKASGYTFTSYWMHWVKQRPGQGLEWIGVIDTSDSYTIYNQKFKGKATLTVDTSSSTAYMQLSSLTSEDSSVYFCARSGPGYFDVWGQGTTVTVSSGGGGSGGGGSGGGGSELQMTQSPASLSASVGETVTITCRASENIYSYLAWYQQKQGKSPQLLVYNAKTLAEGVPSRFSGSGSGTQFSLKINSLQPEDFGSYYCQHHYGTPYTFGGGTKLEIK
B2: CDH3-33 scFv (scFv)
scFv: EVQLVEQPGAELVRPGTSVKLSCKASGYTFTSYWMHWVKQRPGQGLEWIGVIDTSDSYTIYNQKFKGKATLTVDTSSSTAYMQLSSLTSGDSSVYFCARSGPGYFDVWGQGTTVTVSSGGGGSGGGGSGGGGSELVMTQSPASLSASVGETVTITCRASGNIHNYLAWYQQKQGKSPQLLVYNAKTLADGVPSRFSGSGSGTQYSLKINSLQPEDFGTYYCQHFWSTPYTFGGGTKLEIK
B3: CDH3-5 (scFv)
scFv: EVQLVEQSGAELVKPGASVKISCKASGYAFSTSWMNWVKQRPGKGLEWIGRIYPGDGETKYNGKFKGKATLTADKSSSTAYMQLSSLTSEDSAVYFCARQRDYGALYALDYWGQGTRVTVSSGGGGSGGGGSGGGGSELMMTQTPASLSASVGETVTFTCRASENIYSYLAWYQQKQGKSPQLLVYNAKTLAEGVPSRFSGSGSGTQFSLKINSLQPEDFGSYYCQHHYVPPYTFGGGTKLEIK
notes: Used as crude periplasmic extract and detected through a FLAG tag; also called CDH3-5 scFv
B4: CDH3-6 scFv (scFv)
scFv: EVQLVEESGPELVKPGASVKISCKASGYAFSSSWMNWVKQRPGKGLEWIGRIYPGDGETKYNGKFKGKATLTADKSSSTAYMQLSSLTSEDSAVYFCARQRDYGALYAMDYWGQGTSVTVSSGGGGSGGGGSGGGGSELVMTQSPASLSASVGETVTITCRASDDIYSYLAWYQQKQGKSPQLLVYNAKTLAEGVPSRFSGSGSGTQFSLKINSLQPEDFGTYYCQNHYVTPFTFGAGTKLEIK
B5: CDH3-7 (scFv)
scFv: EVQLVEQSGAELVKPGASVKISCKASGYAFSSSWMNWVKQRPGKGLEWIGRIYPGDGETKYNGKFKGKATLTADKSSSTAYMQLSTLTSEDSAVYFCARQRDYGALYAMDYWGQGTSVTVSSGGGGSGGGGSGGGGSELQMTQSPASLSASVGETVTITCRLSENIYSYLAWYRQKEGESPQLLVYNSKTLAEGVPSRFSGSGSGTQFSLKINSLQPEDFGNYYCQNHYGFPFTFGAGTKLEIK
notes: Used as crude periplasmic extract and detected through a FLAG tag; also called CDH3-7 scFv

Columns and labels:
[1] = biological target: Hu CDH3 Dom3A mu (aa 328-363), human/mouse chimeric CDH3 on CHO cells (chimeric hu/mu, UniProt P22223 108-681 (human entry)); test: flow cytometry, transfected CHO cells; crude periplasmic scFv extract; anti-FLAG M2 + anti-mouse IgG Fcγ-PE
Description: (§1) Cells transfected with human or murine CDH3, or with the chimeric human/mouse CDH3 molecules (see Example 1) were stained with crude, undiluted periplasmic extract containing scFv binding to human/macaque CDH3. […] As negative control, cells were incubated with PBS/2% FCS instead of the periplasmic extract. The samples were measured by flow cytometry.

[2] = biological target: T1, Hu CDH3 Dom3 mu (aa 328-440), human/mouse chimeric CDH3 on CHO cells (chimeric hu/mu); test: as above
Description: as §1

[3] = biological target: T2, Hu CDH3 Dom3C mu (aa 404-440), human/mouse chimeric CDH3 on CHO cells (chimeric hu/mu, UniProt P22223 108-681 (human entry)); test: as above
Description: as §1

murine CDH3 on cells = biological target: T3, murine CDH3 on cells (mouse, UniProt P10287 100-822); test: as above
T3 construct: negative control; also called mouse CDH3
T3 sequence: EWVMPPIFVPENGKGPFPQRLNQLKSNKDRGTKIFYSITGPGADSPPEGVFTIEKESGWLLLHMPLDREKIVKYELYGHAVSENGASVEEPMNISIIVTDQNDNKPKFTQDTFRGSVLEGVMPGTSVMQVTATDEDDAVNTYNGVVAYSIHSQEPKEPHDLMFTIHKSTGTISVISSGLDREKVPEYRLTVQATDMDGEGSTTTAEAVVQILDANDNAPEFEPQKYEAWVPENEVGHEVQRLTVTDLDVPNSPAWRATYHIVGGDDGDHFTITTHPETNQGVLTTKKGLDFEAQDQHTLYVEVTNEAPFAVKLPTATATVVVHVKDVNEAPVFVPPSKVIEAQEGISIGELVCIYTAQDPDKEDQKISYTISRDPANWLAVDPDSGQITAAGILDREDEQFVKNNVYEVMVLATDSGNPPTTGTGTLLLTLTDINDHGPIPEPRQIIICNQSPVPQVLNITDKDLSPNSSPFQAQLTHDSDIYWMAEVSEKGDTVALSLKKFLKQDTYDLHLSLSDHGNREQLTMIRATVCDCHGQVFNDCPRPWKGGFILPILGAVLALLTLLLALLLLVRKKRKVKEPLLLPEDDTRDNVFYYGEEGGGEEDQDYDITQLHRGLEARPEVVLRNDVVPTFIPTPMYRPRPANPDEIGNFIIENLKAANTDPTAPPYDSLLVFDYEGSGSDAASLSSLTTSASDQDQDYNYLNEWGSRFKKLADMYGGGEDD
Description: as §1

[4] = biological target: T4, human CDH3 (P-cadherin) on cells (human, UniProt P22223 108-829); test: flow cytometry, transfected CHO cells; crude undiluted periplasmic scFv extract; anti-FLAG M2 + anti-mouse IgG Fcγ-PE; control PBS/2% FCS
T4 construct: The entry includes signal peptide and pro-peptide; extracellular domain D1 starts at aa 108; also called hu CDH3; hu CDH-3
Description: as §1

[5] = biological target: T5, Hu CDH3 Dom2 mu (aa 216-327), human/mouse chimeric CDH3 on CHO cells (chimeric hu/mu); test: as above
T5 chain: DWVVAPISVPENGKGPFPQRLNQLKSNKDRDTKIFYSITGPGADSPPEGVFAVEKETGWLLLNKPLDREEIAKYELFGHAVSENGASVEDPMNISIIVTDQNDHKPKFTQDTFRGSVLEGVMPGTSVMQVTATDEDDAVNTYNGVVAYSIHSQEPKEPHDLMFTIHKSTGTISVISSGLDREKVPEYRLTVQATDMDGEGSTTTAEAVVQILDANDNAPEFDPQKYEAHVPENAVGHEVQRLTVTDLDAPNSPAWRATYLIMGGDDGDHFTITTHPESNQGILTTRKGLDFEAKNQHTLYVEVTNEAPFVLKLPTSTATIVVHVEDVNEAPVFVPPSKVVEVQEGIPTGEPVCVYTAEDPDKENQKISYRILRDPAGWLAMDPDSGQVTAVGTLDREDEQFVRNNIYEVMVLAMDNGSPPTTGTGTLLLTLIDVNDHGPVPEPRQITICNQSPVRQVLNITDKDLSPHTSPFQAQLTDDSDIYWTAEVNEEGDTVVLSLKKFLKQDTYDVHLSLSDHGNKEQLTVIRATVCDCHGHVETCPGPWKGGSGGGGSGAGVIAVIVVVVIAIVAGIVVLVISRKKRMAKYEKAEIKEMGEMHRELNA
Description: as §1

[6] = biological target: Hu CDH3 Dom3B mu (aa 364-403), human/mouse chimeric CDH3 on CHO cells (chimeric hu/mu, UniProt P22223 108-681 (human entry)); test: as above
Description: as §1

[7] = biological target: T2, Hu CDH3 Dom3C mu (aa 404-440), …; test: as above
Description: as §1

[8] = biological target: T6, Hu CDH3 Dom1B mu (aa 144-179), human/mouse chimeric CDH3 on CHO cells (chimeric hu/mu, UniProt P22223 108-681 (human entry)); test: flow cytometry, transfected CHO cells; crude periplasmic scFv extract; anti-FLAG M2 + anti-mouse IgG Fcγ-PE
T6 chain: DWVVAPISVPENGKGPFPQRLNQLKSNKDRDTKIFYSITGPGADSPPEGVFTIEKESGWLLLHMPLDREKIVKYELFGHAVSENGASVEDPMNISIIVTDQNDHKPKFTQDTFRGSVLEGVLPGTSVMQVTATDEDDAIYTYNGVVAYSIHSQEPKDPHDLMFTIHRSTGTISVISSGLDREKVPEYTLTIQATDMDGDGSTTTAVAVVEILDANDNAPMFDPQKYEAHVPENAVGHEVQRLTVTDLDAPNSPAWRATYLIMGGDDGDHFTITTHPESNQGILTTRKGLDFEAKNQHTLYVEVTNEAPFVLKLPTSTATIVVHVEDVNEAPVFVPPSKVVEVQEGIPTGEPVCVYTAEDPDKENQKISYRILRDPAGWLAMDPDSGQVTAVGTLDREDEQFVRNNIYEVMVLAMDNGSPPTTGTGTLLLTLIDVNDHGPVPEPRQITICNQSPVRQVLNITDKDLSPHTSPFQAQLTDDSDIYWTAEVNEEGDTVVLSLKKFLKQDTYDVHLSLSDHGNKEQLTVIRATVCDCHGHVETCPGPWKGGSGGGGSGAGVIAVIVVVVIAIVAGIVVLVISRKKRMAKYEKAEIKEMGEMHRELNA
Description: as §1

[9] = biological target: T7, Hu CDH3 Dom1C mu (aa 180-215), human/mouse chimeric CDH3 on CHO cells (chimeric hu/mu, UniProt P22223 108-681 (human entry)); test: flow cytometry, transfected CHO cells; crude undiluted periplasmic scFv extract; anti-FLAG M2 + anti-mouse IgG Fcγ-PE; control PBS/2% FCS
T7 chain: T6 chain with T52A, I53V, S57T, H63N, M64K, K70E, V72A, F77Y, D90E, H104N
Description: as §1

[10] = biological target: T1, Hu CDH3 Dom3 mu (aa 328-440), …; test: as above
Description: as §1

Row | binding result [1] | binding result [2] | binding result [3] | binding result (murine CDH3 on cells) | binding result [4] | binding result [5] | binding result [6] | binding result [7] | binding result [8] | binding result [9] | binding result [10] | Binder
1 | no binding | no binding | no binding | no binding | binds | binds | binds | – | – | – | – | B1
2 | – | no binding | – | no binding | binds | binds | binds | binds | – | – | – | B2
3 | – | – | – | – | binds | binds | – | – | no binding | binds | – | B3
4 | – | – | – | – | binds | binds | – | – | no binding | binds | binds | B4
5 | – | – | – | – | – | – | – | – | – | – | binds | B5
